From IntAct's records for PubMed 18063693

B1: Steroid hormone receptor ERR1 (Homo sapiens), P11474 (parent)
chain: MSSQVVGIEPLYIKAEPASPDSPKGSSETETEPPVALAPGPAPTRCLPGHKEEEDGEGAGPGEQGGGKLVLSSLPKRLCLVCGDVASGYHYGVASCEACKAFFKRTIQGSIEYSCPASNECEITKRRRKACQACRFTKCLRVGMLKEGVRLDRVRGGRQKYKRRPEVDPLPFPGPFPAGPLAVAGGPRKTAAPVNALVSHLLVVEPEKLYAMPDPAGPDGHLPAVATLCDLFDREIVVTISWAKSIPGFSSLSLSDQMSVLQSVWMEVLVLGVAQRSLPLQDELAFAEDLVLDEEGARAAGLGELGAALLQLVRRLQALRLEREEYVLLKALALANSDSVHIEDAEAVEQLREALHEALLEYEAGRAGPGGGAERRRAGRLLLTLPLLRQTAGKVLAHFYGVKLEGKVPMHKLFLEMLEAMMD
B2: Estrogen-related receptor gamma (Homo sapiens), P62508 (parent)
chain: MDSVELCLPESFSLHYEEELLCRMSNKDRHIDSSCSSFIKTEPSSPASLTDSVNHHSPGGSSDASGSYSSTMNGHQNGLDSPPLYPSAPILGGSGPVRKLYDDCSSTIVEDPQTKCEYMLNSMPKRLCLVCGDIASGYHYGVASCEACKAFFKRTIQGNIEYSCPATNECEITKRRRKSCQACRFMKCLKVGMLKEGVRLDRVRGGRQKYKRRIDAENSPYLNPQLVQPAKKPYNKIVSHLLVAEPEKIYAMPDPTVPDSDIKALTTLCDLADRELVVIIGWAKHIPGFSTLSLADQMSLLQSAWMEILILGVVYRSLSFEDELVYADDYIMDEDQSKLAGLLDLNNAILQLVKKYKSMKLEKEEFVTLKAIALANSDSMHIEDVEAVQKLQDVLHEALQDYEAGQHMEDPRRAGKMLMTLPLLRQTSTKAVQHFYNIKLEGKVPMHKLFLEMLEAKV
partner: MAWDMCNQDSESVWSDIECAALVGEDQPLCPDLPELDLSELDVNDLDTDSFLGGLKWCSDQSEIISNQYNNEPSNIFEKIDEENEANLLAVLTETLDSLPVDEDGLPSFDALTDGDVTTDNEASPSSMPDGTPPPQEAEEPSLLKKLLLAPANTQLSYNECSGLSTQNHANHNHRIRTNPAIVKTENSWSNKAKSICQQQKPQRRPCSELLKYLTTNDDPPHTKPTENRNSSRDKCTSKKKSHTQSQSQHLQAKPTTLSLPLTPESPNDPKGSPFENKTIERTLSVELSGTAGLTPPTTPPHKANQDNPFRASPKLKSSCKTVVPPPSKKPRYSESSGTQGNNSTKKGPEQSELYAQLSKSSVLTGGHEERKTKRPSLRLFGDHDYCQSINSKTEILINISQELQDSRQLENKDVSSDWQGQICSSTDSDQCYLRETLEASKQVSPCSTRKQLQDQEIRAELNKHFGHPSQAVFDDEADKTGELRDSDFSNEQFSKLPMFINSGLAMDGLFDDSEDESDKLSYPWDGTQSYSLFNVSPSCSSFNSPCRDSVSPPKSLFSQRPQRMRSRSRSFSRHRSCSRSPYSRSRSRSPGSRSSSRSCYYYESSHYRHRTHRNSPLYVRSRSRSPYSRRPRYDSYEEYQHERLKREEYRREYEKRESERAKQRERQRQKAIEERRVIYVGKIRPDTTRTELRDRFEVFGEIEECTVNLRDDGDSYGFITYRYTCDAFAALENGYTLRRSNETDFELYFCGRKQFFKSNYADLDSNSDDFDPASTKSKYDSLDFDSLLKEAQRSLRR
B3: Steroid hormone receptor ERR1 (Homo sapiens), P11474 (parent)
chain: B1 chain
partner: B2 partner

Variants of: B1
Details: with sumo3_human SUMO3, P55854
Chain of sumo3_human SUMO3, P55854 (P55854 whole entry): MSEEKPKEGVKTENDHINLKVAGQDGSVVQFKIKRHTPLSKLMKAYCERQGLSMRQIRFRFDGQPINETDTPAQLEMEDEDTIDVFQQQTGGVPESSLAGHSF

Row | effect of a mutation on the interaction | Variant
1 | with no effect | MSSQVVGIEPLYIRAEPASPDSPKGSSETETEPPVALAPGPAPTRCLPGHKEEEDGEGAGPGEQGGGKLVLSSLPKRLCLVCGDVASGYHYGVASCEACKAFFKRTIQGSIEYSCPASNECEITKRRRKACQACRFTKCLRVGMLKEGVRLDRVRGGRQKYKRRPEVDPLPFPGPFPAGPLAVAGGPRKTAAPVNALVSHLLVVEPEKLYAMPDPAGPDGHLPAVATLCDLFDREIVVTISWAKSIPGFSSLSLSDQMSVLQSVWMEVLVLGVAQRSLPLQDELAFAEDLVLDEEGARAAGLGELGAALLQLVRRLQALRLEREEYVLLKALALANSDSVHIEDAEAVEQLREALHEALLEYEAGRAGPGGGAERRRAGRLLLTLPLLRQTAGKVLAHFYGVKLEGKVPMHKLFLEMLEAMMD [K14R]

Variants of: B2
Details: with prgc1_human PPARGC1A

Row | effect of a mutation on the interaction | Variant
2 | with no effect | MDSVELCLPESFSLHYEEELLCRMSNKDRHIDSSCSSFIRTEPSSPASLTDSVNHHSPGGSSDASGSYSSTMNGHQNGLDSPPLYPSAPILGGSGPVRKLYDDCSSTIVEDPQTKCEYMLNSMPKRLCLVCGDIASGYHYGVASCEACKAFFKRTIQGNIEYSCPATNECEITKRRRKSCQACRFMKCLKVGMLKEGVRLDRVRGGRQKYKRRIDAENSPYLNPQLVQPAKKPYNKIVSHLLVAEPEKIYAMPDPTVPDSDIKALTTLCDLADRELVVIIGWAKHIPGFSTLSLADQMSLLQSAWMEILILGVVYRSLSFEDELVYADDYIMDEDQSKLAGLLDLNNAILQLVKKYKSMKLEKEEFVTLKAIALANSDSMHIEDVEAVQKLQDVLHEALQDYEAGQHMEDPRRAGKMLMTLPLLRQTSTKAVQHFYNIKLEGKVPMHKLFLEMLEAKV [K40R]

Variants of: B3
Details: with prgc1_human PPARGC1A

Row | effect of a mutation on the interaction | Variant
3 | with no effect | MSSQVVGIEPLYIRAEPASPDSPKGSSETETEPPVALAPGPAPTRCLPGHKEEEDGEGAGPGEQGGGKLVLSSLPKRLCLVCGDVASGYHYGVASCEACKAFFKRTIQGSIEYSCPASNECEITKRRRKACQACRFTKCLRVGMLKEGVRLDRVRGGRQKYKRRPEVDPLPFPGPFPAGPLAVAGGPRKTAAPVNALVSHLLVVEPEKLYAMPDPAGPDGHLPAVATLCDLFDREIVVTISWAKSIPGFSSLSLSDQMSVLQSVWMEVLVLGVAQRSLPLQDELAFAEDLVLDEEGARAAGLGELGAALLQLVRRLQALRLEREEYVLLKALALANSDSVHIEDAEAVEQLREALHEALLEYEAGRAGPGGGAERRRAGRLLLTLPLLRQTAGKVLAHFYGVKLEGKVPMHKLFLEMLEAMMD [K14R]
